The target in test [1] is HIV-1 BaL envelope glycoprotein (Env, gp120/gp41) on AT-2-inactivated virions (HIV-1 (clade B, strain BaL)). Kind of test: fluorescence correlation spectroscopy (FCS); Alexa 647 labelled mAb (5 μg/ml) incubated with 10 μg/ml of free AT-2-inactivated HIV-1 BaL virions for 90 minutes at 37 °C; in solution.
Test [2] concerns the target gp41 583-618 peptide, oxidized form (Cys598-Cys604 disulfide) (HIV-1 (clade B, strain BaL)). Kind of test: ITC. In general terms: Isothermal titration calorimetry measures the heat released or taken up as one component is titrated into another.
Test [3] deals with mAb F240. Kind of test: Surface Plasmon Resonance (SPR) of gp41 peptide on captured F240 IgG. The class given is binding. The conditions noted are these: reduced vs oxidized peptide.
Protocol: Sensorgrams were obtained at room temperature for mAb F240 immobilized on a Protein A chip with 0–200 nM concentrations of gp41 peptide passed over the chip. […] Standard deviations of ka, kd and KD for two experiments are shown.
The binding affinity and kinetics of F240 for gp41_583–618 peptide and gp41_583–618 peptide pretreated to reduce C^598-C^604 disulfide bond was assessed by Surface Plasmon Resonance on a Biacore T-100 (GE Healthcare) at 25 °C. The reduced gp41_583–618 was generated by treating the oxidized form of the same peptide with 0.05 M of TCEP. Protein A was first immobilized onto the second of the two flow cells on a CM5 chip to ~3000 response units (RU) and the first flow cell blocked with a standard amine coupling protocol (GE Healthcare). F240 IgG to be evaluated was then captured onto the second flow cell by flowing a 5–10 nM solution of mAb at 10 μl/min flow rate for 30 seconds. […] Varying concentrations (0–200 nM) of the oxidized and reduced forms of the peptide were then passed over both flow cells at a flow rate of 30 μl/min for 200 seconds and allowed to dissociate by passing buffer over both cells at the same flow rate for 800 seconds. The cells were regenerated with a 30 second injection of 0.1 M glycine pH 3.0 with a flow rate of 100 μl/min and the antibody reloaded onto the second flow cell for each peptide concentration. […]
For test [4], the system named is EGFP-CEM-NKr-CCR5-SNAP cells sensitized with AT-2–inactivated HIV-1 BaL. Kind of test: RFADCC, virion bound assay. Type of test: cell-based. The conditions noted are these: curves normalized for plateau cytotoxicity values using C11 (Fig. 5D); two independent experiments in duplicate. From the text:
(§1) EGFP-CEM-NKr-CCR5-SNAP cells sensitized with AT-2–inactivated HIV-1 BaL were (C) stained for antibody binding and (D) ADCC using the modified rapid fluorometric antibody-mediated cytotoxicity assay (RFADCC)[35]. Cluster A CD4i antibodies A32, N5-i5, C11 and Synagis were used as controls. The plot represents a mean of two independent experiments normalized to the average A32 values with error bars showing the range between experiments.
(§2) In brief, EGFP-CEM-NKr-CCR5-SNAP target cells were first stained with the SNAP-Surface Alexa Fluor 647 dye, washed twice and spinoculated with HIV-1 BaL AT-2 inactivated virus at 2000 RPM for 2 h at 12 °C. Subsequently, AT-2 BaLsensitized double-stained targets were washed twice with cold R10 medium and then subjected to testing for antibody binding (detected with PE-labeled mouse anti-human IgG secondary antibody, BD Bioscence cat. 555787) and RFADCC assay, following the previously described protocol. Samples were collected on a BD Fortessa Special Order instrument (BD Biosciences) and analyzed using FlowJo software (Tree Star, Ashland, OR). The HIV-1BaL AT-2 inactivated virus was generously provided by Dr. Jeff Lifson, NCI, Frederick. The ADCC data represent the typical results obtained in two independent experiments done in duplicate and the bars indicate the range of the values of cytotoxicity.

In test [5] the target is monoclonal antibody F240 (IgG) (human (isolated from an HIV infected individual)). Kind of test: SPR.
Test [6] addresses mAb F240. Kind of test: Isothermal Titration Calorimetry (ITC) of F240 with gp41 peptides. The class given is binding. Conditions: 25 °C, 1X PBS pH 7.4, F240 111 μM in syringe, peptide 11 μM in cell, single-site model.
Protocol: Sensorgrams were obtained at room temperature for mAb F240 immobilized on a Protein A chip with 0–200 nM concentrations of gp41 peptide passed over the chip. […] Standard deviations of ka, kd and KD for two experiments are shown. […] The binding isotherms were fitted to a one-site binding model using Origin for ITC version 7.0383 (MicroCal). The fitting yields the stoichiometry (N), the binding constant (KD), and the enthalpy (ΔH) of the binding reaction.
The ITC experiments were performed using an ITC200 system (Micro-Cal) as previously described by Bradshaw et al.[61], at 25 °C in a 1X PBS buffer pH 7.4. F240 was dialyzed against this buffer overnight before the experiment. The peptides were dissolved in the final dialysis buffer. […] Titrations were performed at 25 °C with 17 injections of 2.42 μl aliquots, with 210–240 second intervals between injections. Heats of dilutions were measured and subtracted from each data set. Data were corrected for the heat of dilution and fitted using a nonlinear least-squares routine using a single-site binding model with Origin for ITC version 7.0383 (MicroCal).
Test [7] deals with EGFP-CEM-NKr-CCR5-SNAP cells sensitized with AT-2–inactivated HIV-1 BaL. Kind of test: Antibody binding (staining) to virion-sensitized cells, virion bound assay. The class given is cell-based. The conditions noted are these: Fig. 5C; PE-labeled anti-human IgG secondary antibody; mean of two independent experiments normalized to A32.
Excerpt: as §1, §2

Test [8] deals with EGFP-CEM-NKr-CCR5-SNAP cells infected with BaL infectious molecular clone. Kind of test: Cell-surface staining of IMC BaL infected EGFP-CEM-NKr-CCR5-SNAP cells. The class given is cell-based, HIV-1 BaL. As for the experimental part: For BaL-infected cells two gates were delineated: p24+/CD4− and p24+low/CD4+; and one for Mock p24−/CD4+. The plot represents a mean of two independent experiments normalized to the average A32 values with error bars showing the range between experiments.
EGFP-CEM-NKr-CCR5-SNAP cells were spinoculated for 2 hr at 2000 RPM at 12 °C in 96-well U-bottom plate (5 × 10^5 cells/well) with 240 ng of IMC BaL virus (control cells were incubated without virus), as measured by HIV-1 p24 antigen capture ELISA. Afterward, the viral inoculum was diluted 1:2 in R10 medium containing G418 1.5 mg/ml, and cells and virus were placed into one well of a 12-well flat-bottom plate. The cells were then cultured adding fresh medium every 2 days. […] After a wash, cells were then fixed and permeabilized using the Cytofix/Cytoperm Kit (BD-PharMingen, San Diego, Calif.) for 20 min at 4 °C. Subsequently, permeabilized cells were washed once with the buffer provided by the manufacturer, resuspended and stained for 30 min at RT with 5 μl (PE)-conjugated mouse anti-p24 mAb (KC57-RD1; Beckman Coulter, Inc.). After two additional washes, HIV-1- or mock were fixed in PFA 2% analyzed with an LSRII Fortessa flow cytometer (BDBiosciences) and data analysis was performed with FlowJo software (Tree Star,Inc., San Carlos, Calif.). The plot represents a mean of two independent experiments normalized to the average A32 values with error bars showing the range between experiments.

Test [9] addresses T1, gp41 583-618 peptide, oxidized form (Cys598-Cys604 disulfide) (HIV-1 (clade B, strain BaL), disulfide bond between Cys598 and Cys604 (oxidized peptide)).
T1 peptide: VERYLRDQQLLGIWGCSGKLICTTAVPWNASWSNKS
Kind of test: SPR. (Surface plasmon resonance follows binding to a sensor surface in real time, without labels.)

Test [10] concerns the target T1, gp41 583-618 peptide, oxidized form …. Kind of test: SPR.
For test [11], the target named is T2, gp41 583-618 peptide, reduced form (pretreated with TCEP) (HIV-1 (clade B, strain BaL)).
T2 peptide: T1 peptide
Kind of test: SPR; peptide pretreated with TCEP.

In test [12] the target is T2, gp41 583-618 peptide, reduced form …. Kind of test: SPR; peptide pretreated with TCEP.

This note sets out measurements from publication PMC5101508 (Scientific Reports, 2016).

As for monoclonal antibody F240 (IgG), in test [1], the percent of binding worked out at 40%. In addition, in test [2], the Ka turned out to be 2.95e+07 M⁻¹ and the dissociation constant Kd – broadly, the free concentration of one partner at which half of the binding sites on the other are occupied at equilibrium, for simple one-to-one binding – came to 34 nM.

Turning to “VERYLRDQQL[10] LGIWGCSGKL[20] ICTTAVPWNA[30] SWSNKS [reduced gp41_583–618, gp41_583–618 pretreated with TCEP to reduce the C598-C604 disulfide bond]”, in the test on mAb F240 [3], the “lower affinity as compared to its oxidized form” value is on record as “approximately 14 fold”.

Take “Synagis: Synagis (MedImmune), control mAb [reference compound]”: in test [4], the “AUC (Area Under Curve), ADCC” value worked out at 18.2 cytotoxicity/μg/ml.

On to “gp41 583-618 peptide, reduced form (pretreated with TCEP)”, for which, in [5], the fold lower affinity than the oxidized peptide was determined as 14 fold.

Take “VERYLRDQQL[10] LGIWGCSGKL[20] ICTTAVPWNA[30] SWSNKS (disulfide) [gp41_583–618]”: on mAb F240 [6], the “binding constant KB” value turned out to be 2.95e+07 M⁻¹. The equilibrium dissociation constant (Kd) on mAb F240 [6] (read-out: dissociation constant KD) was determined as 34 nM.

B1: N5-i5: Cluster A CD4i antibody used as control (antibody, V domains shown)
VH: EVQLVESGGGLVQPGGSLRLSCAASGFTFSTYAMSWVRQAPGKGLEWVSSINNSGRNTFSADSVKGRFTISRDNSKNTLFLVMNSLRAEDTAVYYCAKDLRLGGGSDYWGQGTLVTVSS
VL: QSALTQPASVSGSPGQSITISCTGTSSDVGSYNFVSWYQQHPGKAPKLMIYEVSERPSGISNRFSGSKSGNTASLTISGLQAEDEADYYCSSYAGSTTFRVFGGGTKLTVR
For the molecule B1, the “AUC (Area Under Curve), ADCC” value in test [4] was determined as 374.8 cytotoxicity/μg/ml. The “recognition (binding) of virion-sensitized cells, in words” value in test [7] was “Lower than reported in ref. [35]”. The “binding to mock-infected cells” value in test [8] (mock p24−/CD4+ population) is reported as “did not recognize”. In test [8] (p24+/CD4− population, 5 days post-infection), the “binding to productively infected cells” value is recorded as “did not recognize”. Further, in test [8] (p24+low/CD4+ population, 5 days post-infection), the “binding to CD4-preserving cells with virus” value was “very effectively stained”.

B2: monoclonal antibody F240 (IgG) (antibody, V domains shown)
VH: QVQLVQSGGGVVKPGASSRLSCAASGFTFTDYYMSWIRQAPGKGLEWVAYITKDGSEKKYADSLQHRFAVSRDNANNLVFLQLNTVEDDDTGVYYCARDDGYYDRSGYYGVFDLWGQGIRVTVSS
VL: EFLLTQSPDSLAVTLGETATITCRSSRNILHSLNNKNYLAWYQQRPGQAPKLLVIWASMRVSGVADRFSGSGSGTDFALTISSLQPEDAAVYYCQHYYTTHRTFGQGTRVEIR
modifications: Alexa Fluor 647 on primary amines (only in the FCS experiments and in the staining of IMC BaL-infected cells) | Alexa Fluor 647 on primary amines (only in the FCS experiments and in the staining of IMC BaL-infected cells)
With B2, the koff (usually the rate constant with which the complex falls apart) is 0.00083 s⁻¹ in test [9] and 0.0028 s⁻¹ in test [11]. The results for the Kd in test [10] and in test [12] were 4.4 nM and 60 nM, respectively.
